Results as given in a protein production outcome set (Wang et al. 2014).

Assay: label from the status in PepcDB records
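Also: failed if final PepcDB status was selected cloned or expressed and not failed if soluble or beyond.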

Sequence	protein production
MTISNFVNYIRSPPVNGFVCCTRGSSIAVCNPTTRQIVKLPDVVTNENYMHVRLGYDPVEDQYKVLLVVMMFDGYRTDTDQEYFVFTLSSQQKEWRKIENTTGETYHMVYGGICIDGAIYYGVSQSIIVKFDVRSEKMEFIQAHEVSHIAPPYYSTLLYLSSDMIRMENHSNEEVRFWILEDAEKLRVSHMACDVWDDSLGKYVRAKEEIHTGKLMGIYPRLQSSKYKPFSVCVYHFNKVGLKKTEIQGSNDDDIRFRCGIGMRTHEILILEVTLRILGSCEEFSWFH	not failed
MDRSLQSTHAKLVARDIQRLTQSPTESNSFSLLGGACVSRVEIVGTIVSRDLTPKFLKFGVDDGTGCVTCVMWLNQLTSSYFSRWDPATILLLASAARKQAAQIRIGAVARVRGRVGSYRGVMQITANVAVAERDPNAEILHWLECLKLGQSCYRVRIQS	failed
MTHASILISVIIPAYNAAKFLPDAIASVEKQTFTDWELLIINDGSTDDTIEVVREHQKTSDCIYLINQTNQGVSAARNQGVAHSQGQIIAFLDADDQWLPDKLSQHWQHFQSNSRLGVSFAQVEILDQAGEPTGQVSTSRLNDLKPEYFLSENPTTTTSNWVIRKEVFTQVGGFCLDMSYSEDLEWLLRVSSTTDWQIQGINQVLTRYRTSSSGLSSNLYYMEAGWKQLVNRARIYAPQLVHNHFALAQAVHLRYLARRAFRLKLPARVGVDFITRALISDWRLLFHQPQRTFFTLLAVFGALVMERVFGLNTHRGSTAKAEPFRGSIP	failed
METALVSIIMPMYNAGKFLSKSIESVLEQTYQNWELLLIDDGSKDDSIDIALAFMEKDSRIFLLKNEQNMGIAKTRNKGIEASKGQYIAFLDSDDLWLPNKLEVQVKWMEEKKLLFTCSSYFVCNENGNITHERNFSEGPQTYQDLLKTNTIGCLTVVVESNLLKRHLMPDLKHEDYATWLNILKEINTVYFINEKLAIYRKLTTSTSSNKWNTISWVWKILRQNEQFSVIKSSFYLMRFLFYTTFKYAKNELEHHHHHH	not failed
MRDMEFIEWYPRGYGVAFKVKRKILEEQSEYQKIEVYETEGFGKLLAIDGTVQLVTEGEKSYHEPLVHPAMLAHPNPRRVLIIGGGDGGAIREVLKHEEVEEVIMVEIDKKVIEISAKYIGIDGGILEKMLSDKHEKGKLIIGDGVKFIEENSGFDVIIVDSTDPVGPAEMLFSEEFYKNAYRALNDPGIYVTQAGSVYLFTDEFLTAYRKMRKVFDKVYYYSFPVIGYASPWAFLVGVKGSIDFMKVDAEKGKKLGLEYYDPDKHETLFQMPRYIVQML	not failed
MKLAYWMYAGPAHIGTLRVATSFKNVHAIMHAPLGDDYFNVMRSMLSRERDFTPVTTSVVDRHVLARGSQEKVVDNITRKDAEERPDLIVLTPTCTSSILQEDLENFVERAQLEAKGDVLLADVNHYRVNELQAGDRTLHQIVQYYIEKARKKGELPEGKTAKPSVNIIGISTLGFHNNHDCTELKRLMADLGIEVNAVIPEGASVHELKNLPRAWFNLVPYRELGLMTANYLEKEFGTPCIDIVPMGVVETARCIRKIQEVINAQGADVNYEDYINEQTLYVSQAAWFSRSIDCQNLTGKKAVVFGDNTHAAALTKILSREMGIHVVWAGTYCKYDADWFREQVSEYCDEVLITEDHGEIGDAIARVEPSAIFGTQMERHVGKRLDIPCGVIAAPIHVQNFPIGYKPFLGYEGTNQITDLIYNSFTLGMEDHLLEIFGGHDTKEVITKGISAGSDLSWTKDGLAELNKIPGFVRGKVKRNTEKFARDRGFKDISAEVLYAAKEAVGA	failed
MNEQQRLASQQVNSSTKKEEKDYSKYFESVYQPPSLKEAKKRGKEEVKIERDFGLPEEFRNFGTGRKFYIRTYGCQMNEHDTEVMAGIFTALGYEPTFSTEDADVVLLNTCAIRENAENKVFGELGHLKALKRRNPDLLIGVCGCMSQEESVVNKIMQKNQHVDMVFGTHNIHRLPYILKDAMFSKETVVEVWSKEGDVIENLPKVRRGDIKAWVNIMYGCDKFCTYCIVPYTRGKERSRRPEDIIQEIRHLAANGYKEITLLGQNVNAYGKDFEDIEYGLGDLMDELRKVDIARIRFTTSHPRDFDDHLIEVLGKGGNLVEHIHLPVQSGSTEMLKIMARKYSREHYLELVRKIKEAIPNAVLTTDIIVGFPNETDEQFEETMSLYREVGFDTAFTFIYSPREGTPAAKMKDNVPMEVKKERLQRLNALVNKLAIEKNDRYKGQIVEVLVDGESKNNPEVLAGYTRTNKLVNFVAPKSLIGQLVKVKVTDAKTWSLNGELVEEPIEVELEHHHHHH	failed
RERLRFERDHFRILVDVTNTVISKLELDVLAAEVSKEIHRFFNIDYISLAICGTHNDKNKLNVFSTRYQSGQAVQHQQTWVDMTGTLAGQVLHSRELLLVNLADIALLAPDDKQLASMLDAGLQAVCLLPLFFGHKMLGVLKLAQCQSDIFTGSNLKLLRQIAARIAIAVDNALAYNEITRLKDS	failed
MKPKLILMSHGRMAEETLASTQMIVGELADAAIVSMTAEDGLSGTQAKLAAILKEAGNVPTLVLADLKGGTPCNVAMMAMGTYPQLRVVAGLNLAMAIEAAVSPVENVDELAAYLTQIGQSAVTTIDLPELTDEEEFEE	not failed
MELKDIMHILEDMKVGVFATLDEYGNPHARHAHITAANEEGIFFMTSPETHFYDQLMGDQRVAMTAISEEGYLIQVVRVEGTARPVENDYLKTVFADNPYYQHIYKDESSDTMQVFQIYAGHGFYHSLTQGHKYIFSIGQGEHSEVRAL	not failed
MRGVFLDKDKIPYDLVTKKLNEWYTSIKNDQVEQAEIIKTEVEKELLNMEENQDALLYYQLLEFRHEIMLSYMKSKEIEDLNNAYETIKEIEKQGQLTGMLEYYFYFFKGMYEFRRKELISAISAYRIAESKLSEVEDEIEKAEFFFKVSYVYYYMKQTYFSMNYANRALKIFREYEEYAVQTVRCQFIVAGNLIDSLEYERALEQFLKSLEISKESNIEHLIAMSHMNIGICYDELKEYKKASQHLILALEIFEKSKHSFLTKTLFTLTYVEAKQQNYNVALIYFRKGRFIADKSDDKEYSAKFKILEGLFFSDGETQLIKNAFSYLASRKMFADVENFSIEVADYFHEQGNLMLSNEYYRMSIEARRKIKKGEIIDENQPDSIGSSDFK	failed
MTKFSIIIPTRERVGTLLYTLPACLRVERDDIEFVVCDNYSQDGTADYLKSIQDHRVRIYRTNQRLSMKDNFEHGLARAQGEYICFMGDDDLIIPSLFPLVEKELENVETVCWNRWVYYWPDSYESPNMLIVNNNNFSVILSSSRALDFALRYFLNYQNLPSLYNSFTHRKIVQRVINYNCLNLETEKFYPQDAISPDVFSALQILKFTNSFAHIGLPLTVSGISSSSNGAGVRNNSEESKKFIQELKVEKLSDLLHVSLSALLTQKISYYITNLSDYISFIINYIPETLQEDIFLDLIASGCRTLFDIGDIDADTATQFMAGYDISPWVVNGRLNLMDQGFYTLFRVPMFNRVVINGDEHSLSNSLNASVFLDDYFSSLIY	failed
MNSFYSQEELKKIGFLSVGKNVLISKKASIYNPGVISVGNNVRIDDFCILSGKVTIGSYSHIAAYTALYGGEVGIEMYDFANISSRTIVYAAIDDFSGNALMGPTIPNQYKNVKTGKVILKKHVIIGAHSIIFPNVVIGEGVAVGAMSMVKESLDDWYIYVGVPVRKIKARKRKIVELENEFLKSMNSLEHHHHHH	failed
MSDIIDEVISSFKTSSIFINREYLLPDYIPDELPHREDQIRKIASILAPLYREEKPNNIFIYGLTGTGKTAVVKFVLSKLHKKFLGKFKHVYINTRQIDTPYRVLADLLESLDVKVPFTGLSIAELYRRLVKAVRDYGSQVVIVLDEIDAFVKKYNDDILYKLSRINSEVNKSKISFIGITNDVKFVDLLDPRVKSSLSEEEIIFPPYNAEELEDILTKRAQMAFKPGVLPDNVIKLCAALAAREHGDARRALDLLRVSGEIAERMKDTKVKEEYVYMAKEEIERDRVRDIILTLPFHSKLVLMAVVSISSEENVVSTTGAVYETYLNICKKLGVEAVTQRRVSDIINELDMVGILTAKVVNRGRYGKTKEIGLAVDKNIIVRSLIESDSRFADLWS	failed
MLMEVKALAHAKNDSVAVATDDLKEGEEIQVAFLDNNEKTKITTAEVIPLGHKISLKDIKKGENVIEYGEVIGAATKDIKRGEHVHIHNIKSLRW	not failed
MIYDFCVIGGGIVGLATAMRLLEVYPGCSLVLMEKELSLAQHQTGHNSGVIHAGVYYAPGSFKAKLCARGAELTKSFCTEHSIPYEVCGKLVVASNKDSLARLGSLEERAKQNGLATERLDALELRRREPNVAGEGALFVKSSGIVDYGVVSNSMANVIIQSGGQILLGQTVVSIEEHGNHVNIASEGSSLSAKKLVVCAGLQSDRLATLAGLKLDCQIVPFRGEYYRLSSHLDYSVKHLIYPVPEVGLPFLGIHITRMINGGVTVGPN	failed
MTQPELTPAQRTEVELLARGRADKSRVLRDLKLPETPEAAHALLLRLGVWDEARTPYADRLRAALNAVELPVPDFDPAEERLDLTHLPTFAIDDEGNQDPDDAVGVEDLGGGLTRLWVHVADVAALVAPDSPLDLEARARGATLYLPDRTIGMLPDELVAKAGLGLHEVSPALSICLDLDPDGNAEAVDVLLTRVKVQRLAYQEAQARLEAGEEPFVTLARLARASRRLREGEGALSIDLPEVRVKADETGASVFPLPKPEMRTVVQECMTLAGWGTAIFADDNEIPLPFATQDYPTREVAGDTLPAMWARRKTLARTRFQPSPGPHHGMGLDLYAQATSPMRRYLDLVVHQQLRAFLAGRDPLSSKVMAAHIAESQMNADATRQAERLSRRHHTLRFIAAQPERVWDAVVVDRRGAQATLLIPDLAFDVQVNTPAAPGTALQVQFADIDLPQMRVRARSVLEHHHHHH	not failed
MAIQGSRTEGLGGYTFDDLAVVMGTYNEEEAIGTVLDDIATVTDGRAEVICVDGSSDRTPEIARDHGATVIEQEPQGYGVAVREAVLTPDRPVVVTTDCDDTYPMERLPDFLAEINDGADVVSGDRLYYGAEQMPAMNKLGNELFALLASVLMGKRVHDTTTGMRAYRREVLQKIVWTENTGLSAELLMRPLMRGYDVRERPIEYDERKGETKLDPFSGGAAIAKSIVRVALEERFRLEHHHHHH	not failed
MSELIKHSSNFLAAISPDNDCSITATNDFEAMMSWLNGYKKKPINTSRNYAREVKRYLIWLSCQGLTLAQVKIEDVYEYFNLLERPTTEWIIPDKKTDKIYPTQLIKYGGLSNRSINYTHTVLGLFYSFLQDAGYLTKNPINLVKKASATTESEQYRHLDLPAWQTLWTWILGYENRVITEDQPAKMIKKASRYRWVFALLYHSGIRCAEAANALMSDLVRKNNTWSLKVTGKGNKMRLVTVNSLLLKELIHYRRSLLLTDYPSSHDDTPLIVSIQKNRQGSMTTRTLSSLIKEVTELVCADCQDDQITRQIETMTTHWLRHTNATHRFMAGASLETTQDELGHADPRTTRIYAKTSNEKRKLDAERLADLFDGIG	failed
MSLFRQGSQFMIIGALQLAVDCGIFIAATAAGMPAVPANLLGRIGGAMLGFWLNGRYTFAQQGDARLGWRRFRRFAAMWLTLTLISTWLLSTTVDLLGLRQAWLAKPLVEGGLAIVSFFLGRHVVYR	failed
MGRLSGKTILVTGAASGIGRAALDLFAREGASLVAVDREERLLAEAVAALEAEAIAVVADVSDPKAVEAVFAEALEEFGRLHGVAHFAGVAHSALSWNLPLEAWEKVLRVNLTGSFLVARKAGEVLEEGGSLVLTGSVAGLGAFGLAHYAAGKLGVVGLARTLALELARKGVRVNVLLPGLIQTPMTAGLPPWAWEQEVGASPLGRAGRPEEVAQAALFLLSEESAYITGQALYVDGGRSIVGPPGLPPGFGPKGGERHAHVL	not failed
